From the RNAGym collection of RNA variant scans (doi:10.1093/molbev/msab373)

B1: Azoarcus group I ribozyme (parent)
chain: GUGCCUUGCGCCGGGAAACCACGCAAGGGAUGGUGUCAAAUUCGGCGAAACCUAAGCGCCCGCCCGGGCGUAUGGCAACGCCGAGCCAAGCUUCGGCGCCUGCGCCGAUGAAGGUGUAGAGACUAGACGGCACCCACCUAAGGCAAACGCUAUGGUGAAGGCAUAGUCCAGGGAGUGGCGAAAGUCACACAAACCGG

Variants of: B1
Assay: reverse-splicing fitness (ratio to wild type); higher = more active; in vitro selection; Mg2+ level not given
Summary of the method: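 An in vitro group I ribozyme library with randomized positions was T7-transcribed and gel-purified. In triplicate, 10 pmol RNA in EPPS pH 7.5 was reacted with 50 pmoles of a 30-nt RNA substrate for 1 h at 37 °C across several added MgCl2 levels (1–48 mM), then stopped with EDTA. Products were reverse transcribed from a substrate-complementary primer, PCR-amplified and sequenced (HiSeq 4000). Fitness is a variant's read proportion after selection over that before, normalised to wild type.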

Row | Variant | reverse-splicing fitness
1 | C82A A111G A120C A145G C150U C169U | 0.0147
2 | C82A A111G A120C C150A U176A | 0.0133
3 | C82A A111G A120C C150A U176C | 0.0223
4 | C82A A111G A120C C150A U176G | 0.0115
5 | C82A A111G A120C A145C C169G | 0.00965
6 | C82A A111G A120C A145C C169U | 0.0116
7 | C82A A111G A120C A145C C169A | 0.00673
8 | C82A A111G A120C A145G C169G U176G | 0.0054
9 | C82A A111G A120C A145G C169G U176C | 0.0275
10 | C82A A111G A120C A145G C169G U176A | 0.0216
11 | C82A A111G A120C A145G C169G | 0.00928
12 | C82A A111G A120C A145G C169U | 0.013
13 | C82A A111G A120C A145G C169A | 0.0112
14 | C82A A111G A120C A145G C150G C169A U176A | 0.0145
15 | C82A A111G A120C A145G C150G C169A U176C | 0.0137
16 | C82A A111G A120C A145G C150G C169A U176G | 0.00827
17 | C82A A111G A120C A145U C150U C169A U176C | 0.0127
18 | C82A A111G A120C A145U C150U C169A U176A | 0.0157
19 | C82A A111G A120C A145U C150U C169A U176G | 0.00591
20 | C82A A111G A120C A145C C150U C169U U176A | 0.0132
21 | C82A A111G A120C A145C C150U C169U U176G | 0.00597

Row | Variant | reverse-splicing fitness
22 | C82A A111G A120C A145C C150U C169U U176C | 0.0102
23 | C82A A111C C169G U176A | 0.0177
24 | C82A A111C C169G U176G | 0.00734
25 | C82A A111C C169G U176C | 0.0237
26 | C82A A111G A120C C150U C169G U176G | 0.00643
27 | C82A A111G A120C C150U C169G U176C | 0.0203
28 | C82A A111G A120C C150U C169G U176A | 0.0173
29 | C82A A111G A120C A145U C169U U176C | 0.0131
30 | C82A A111G A120C A145U C169U U176A | 0.0152
31 | C82A A111G A120C A145U C169U U176G | 0.00505
32 | C82A A111G A120C A145C C150G C169G | 0.00705
33 | C82A A111G A120C A145C C150G C169U | 0.009
34 | C82A A111G A120C A145C C150G C169A | 0.0102
35 | C82A A111G A120C A145G C150G C169A | 0.00974
36 | C82A A111G A120C A145G C150G C169U | 0.00967
37 | C82A A111G A120C A145G C150G C169G | 0.00734
38 | C82A A111G A120C A145C C150A U176G | 0.00529
39 | C82A A111G A120C A145C C150A U176A | 0.0102
40 | C82A A111G A120C A145C C150A U176C | 0.0151
41 | C82A A111G A120G A145C C150A U176A | 0.0107
42 | C82A A111G A120G A145C C150A U176C | 0.00922

Row | Variant | reverse-splicing fitness
43 | C82A A111G A120G A145C C150A U176G | 0.00509
44 | C82A A111C C150U C169U | 0.0128
45 | C82A A111G A120C A145U C150U C169U U176A | 0.0144
46 | C82A A111G A120C A145U C150U C169U U176C | 0.0124
47 | C82A A111G A120C A145U C150U C169U U176G | 0.00546
48 | C82A A111G A120C C150A C169U U176C | 0.0133
49 | C82A A111G A120C C150A C169U U176A | 0.0162
50 | C82A A111G A120C C150A C169U U176G | 0.00938
51 | C82A A111G A120C A145U C150U C169U | 0.0117
52 | C82A A111G A120C A145U C150U C169A | 0.0102
53 | C82A A111G A120C A145U C150U C169G | 0.00921
54 | C82A A111G A120C C169A U176G | 0.00575
55 | C82A A111G A120C C169A U176A | 0.0173
56 | C82A A111G A120C C169A U176C | 0.0223
57 | C82A A111G A120C A145G C169A U176C | 0.0269
58 | C82A A111G A120C A145G C169A U176A | 0.0226
59 | C82A A111G A120C A145G C169A U176G | 0.00562
60 | C82A A111G A120C A145U C150A C169A | 0.0111
61 | C82A A111G A120C A145U C150A C169U | 0.00961
62 | C82A A111G A120C A145U C150A C169G | 0.00948
63 | C82A A111G A120G A145C C169A | 0.00912

Row | Variant | reverse-splicing fitness
64 | C82A A111G A120C C150U C169A U176G | 0.00635
65 | C82A A111G A120C C150U C169A U176A | 0.0187
66 | C82A A111G A120C C150U C169A U176C | 0.0154
67 | C82A A111G A120C U176G | 0.00892
68 | C82A A111G A120C U176C | 0.032
69 | C82A A111G A120C U176A | 0.0208
70 | C82A A111G A120C C150G C169U | 0.00991
71 | C82A A111G A120C C150G C169A | 0.00992
72 | C82A A111G A120C C150G C169G | 0.00727
73 | C82A A111C C150U C169U U176C | 0.0147
74 | C82A A111C C150U C169U U176G | 0.00804
75 | C82A A111C C150U C169U U176A | 0.0165
76 | C82A A111G A120G A145C C150A C169U U176G | 0.00484
77 | C82A A111G A120G A145C C150A C169U U176A | 0.0207
78 | C82A A111G A120G A145C C150A C169U U176C | 0.0117
79 | C82A A111G A120C C150U U176A | 0.0143
80 | C82A A111G A120C C150U U176G | 0.01
81 | C82A A111G A120C C150U U176C | 0.0238
82 | C82A A111G A120C A145G C150A U176A | 0.0133
83 | C82A A111G A120C A145G C150A U176G | 0.0103
84 | C82A A111G A120C A145G C150A U176C | 0.0253
